Patent US20260275319A1 (MAX PLANCK GESELLSCHAFT ZUR F RDERUNG DER WISSENSCHAFTEN E V, published 2026)

T1: MtrH of M. mazei (subunit of the MtrA-MtrH complex), from whole cell extract (Methanosarcina mazei)
T1 sequence (P80650 1-316, looked up): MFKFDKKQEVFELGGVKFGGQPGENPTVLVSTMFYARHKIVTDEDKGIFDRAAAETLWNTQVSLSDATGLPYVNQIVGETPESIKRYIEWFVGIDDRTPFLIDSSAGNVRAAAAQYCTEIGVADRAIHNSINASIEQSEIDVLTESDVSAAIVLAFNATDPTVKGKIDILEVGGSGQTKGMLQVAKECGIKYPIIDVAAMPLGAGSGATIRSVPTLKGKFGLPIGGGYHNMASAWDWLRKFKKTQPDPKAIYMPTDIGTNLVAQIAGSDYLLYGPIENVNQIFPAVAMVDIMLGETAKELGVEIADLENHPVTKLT

T2: MtrE of M. mazei (subunit of the MtrA-MtrH complex), from whole cell extract (Methanosarcina mazei)
T2 sequence (P80651 whole entry, looked up): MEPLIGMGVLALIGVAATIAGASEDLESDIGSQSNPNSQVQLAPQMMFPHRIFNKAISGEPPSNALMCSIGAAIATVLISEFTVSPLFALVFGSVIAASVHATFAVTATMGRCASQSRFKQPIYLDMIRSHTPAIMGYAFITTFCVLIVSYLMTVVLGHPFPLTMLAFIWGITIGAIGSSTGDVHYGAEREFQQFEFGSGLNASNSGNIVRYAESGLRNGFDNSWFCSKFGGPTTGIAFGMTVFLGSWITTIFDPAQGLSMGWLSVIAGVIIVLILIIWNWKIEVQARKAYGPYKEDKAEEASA

T3: MtrG of M. mazei (subunit of the MtrA-MtrH complex), from whole cell extract (Methanosarcina mazei)
T3 sequence (P80656 whole entry, looked up): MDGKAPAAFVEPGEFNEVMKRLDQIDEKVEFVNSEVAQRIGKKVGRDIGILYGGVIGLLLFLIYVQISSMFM

T4: MtrB of M. mazei (subunit of the MtrA-MtrH complex), from whole cell extract (Methanosarcina mazei)
T4 sequence (P80655 whole entry, looked up): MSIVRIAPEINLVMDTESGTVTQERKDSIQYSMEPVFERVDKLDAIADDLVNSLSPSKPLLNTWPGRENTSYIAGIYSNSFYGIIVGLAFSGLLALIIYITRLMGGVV

T5: MtrF of M. mazei (subunit of the MtrA-MtrH complex), from whole cell extract (Methanosarcina mazei)
T5 sequence (P80654 whole entry, looked up): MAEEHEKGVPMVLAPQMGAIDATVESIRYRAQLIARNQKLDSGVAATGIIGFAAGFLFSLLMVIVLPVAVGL

B1: M. mazei Adriase with C-terminal Myc-tag (enzyme)
chain: TLVIAFIGKNGAVMAGDMREITFEGEKPDREKLEKELYSGSIVTDEEMQKKAEEFGVKITVADCKEKVSERNGVLVGEVSSAEGGVVKKRRLYASAGNFAIAELINTEMTLTSQGKGSNFIAFGNEFTKQVANKCFKDNWTKKSNLQDAVKILILCMETVARKTASVSKQFMIVQTASNADVLKVVEKDRNCGSEQKLISEEDL
notes: also called MM_2909
B2: M. mazei Adriase with C-terminal HA-tag (enzyme)
chain: TLVIAFIGKNGAVMAGDMREITFEGEKPDREKLEKELYSGSIVTDEEMQKKAEEFGVKITVADCKEKVSERNGVLVGEVSSAEGGVVKKRRLYASAGNFAIAELINTEMTLTSQGKGSNFIAFGNEFTKQVANKCFKDNWTKKSNLQDAVKILILCMETVARKTASVSKQFMIVQTASNADVLKVVEKDRNCGSYPYDVPDYA
notes: also called MM_2909

Key:
[1] = target: T1, MtrH of M. mazei (subunit of the …); assay: pulldown from M. mazei whole cell extract with Myc-tagged Adriase, LC-MS/MS (Experiment 2.2)
[2] = target: T2, MtrE of M. mazei (subunit of the …); assay: as above
[3] = target: T3, MtrG of M. mazei (subunit of the …); assay: as above
[4] = target: T4, MtrB of M. mazei (subunit of the …); assay: as above
[5] = target: T1, MtrH of M. mazei (subunit of the …); assay: pulldown from M. mazei whole cell extract with HA-tagged Adriase, LC-MS/MS (Experiment 2.3)
[6] = target: T5, MtrF of M. mazei (subunit of the …); assay: as above
[7] = target: T2, MtrE of M. mazei (subunit of the …); assay: as above
[8] = target: T3, MtrG of M. mazei (subunit of the …); assay: as above
[9] = target: T4, MtrB of M. mazei (subunit of the …); assay: as above

Binder	Intensity (mass spectrometry) [1] [arbitrary units]	Intensity (mass spectrometry) [2] [arbitrary units]	Intensity (mass spectrometry) [3] [arbitrary units]	Intensity (mass spectrometry) [4] [arbitrary units]	Intensity (mass spectrometry) [5] [arbitrary units]	Intensity (mass spectrometry) [6] [arbitrary units]	Intensity (mass spectrometry) [7] [arbitrary units]	Intensity (mass spectrometry) [8] [arbitrary units]	Intensity (mass spectrometry) [9] [arbitrary units]
B1	6.5e+07	2.2e+06	1.2e+06	3.2e+06	–	–	–	–	–
B2	–	–	–	–	2e+08	430000	3.8e+06	1.5e+07	6.2e+06
